According to US20140141002A1 (UNIVERSITY OF NORTH CAROLINA AT CHAPEL HILL, published 2014):
Values belong to the molecule of their own block, whether it stands above or below them.

Key:
[1] = molecular target: Src homology 2 domain containing protein tyrosine phosphatase substrate 1 (SHPS-1), endogenous in porcine aortic smooth muscle cells (porcine) (UniProt F1S887); experiment: SHPS-1 immunoprecipitated from transfected pSMCs, immunoblot for FLAG, densitometry
[2] = molecular target: T1, Src homology 2 domain containing protein tyrosine phosphatase substrate 1 (SHPS-1), endogenous in porcine … (porcine, UniProt F1S887 31-509); experiment: cell-based or functional assay
T1 sequence: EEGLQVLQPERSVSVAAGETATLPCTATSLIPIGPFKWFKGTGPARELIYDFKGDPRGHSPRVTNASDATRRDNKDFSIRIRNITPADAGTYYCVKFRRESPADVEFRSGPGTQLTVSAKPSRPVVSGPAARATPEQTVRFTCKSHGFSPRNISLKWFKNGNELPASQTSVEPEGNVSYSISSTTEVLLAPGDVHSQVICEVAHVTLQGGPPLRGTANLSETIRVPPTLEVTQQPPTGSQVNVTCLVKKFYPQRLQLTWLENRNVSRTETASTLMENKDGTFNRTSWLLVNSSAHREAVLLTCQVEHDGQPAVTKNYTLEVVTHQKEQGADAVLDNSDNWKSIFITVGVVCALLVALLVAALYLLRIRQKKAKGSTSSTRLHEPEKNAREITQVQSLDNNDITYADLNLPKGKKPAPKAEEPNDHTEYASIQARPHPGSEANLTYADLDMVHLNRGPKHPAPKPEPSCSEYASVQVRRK

[3] = molecular target: T2, integrin associated protein (IAP), endogenous in porcine aortic smooth muscle cells (porcine) (UniProt Q9GKE8); experiment: pSMCs incubated 2 h with B6H12 (4 ug/ml); SHPS-1 immunoprecipitated, immunoblot for IAP, densitometry
T2 sequence (looked up): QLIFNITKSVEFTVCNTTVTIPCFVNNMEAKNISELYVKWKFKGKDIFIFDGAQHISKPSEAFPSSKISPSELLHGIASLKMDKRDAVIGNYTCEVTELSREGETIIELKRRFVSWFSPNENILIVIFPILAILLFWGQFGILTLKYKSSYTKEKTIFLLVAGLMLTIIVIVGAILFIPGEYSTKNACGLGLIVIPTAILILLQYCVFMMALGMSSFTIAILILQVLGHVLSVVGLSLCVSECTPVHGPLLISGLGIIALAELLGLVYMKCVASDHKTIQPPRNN

% reduction in IAP association with SHPS-1 compared with cells expressing IAP fl [1]: 88%
Molecule: IAP with truncation of extracellular domain at residue 135 and containing a C-terminal FLAG epitope (IAPcyto) (from UniProt Q9GKE8 135-303) (receptor)

IGF-1 stimulated cell proliferation, cells incubated with B6H12 [2]: 1.03 fold | IGF-1 stimulated increase in SHPS-1 phosphorylation, cells pretreated with B6H12 [2]: 0.93 fold | fold increase in SHPS-1 phosphorylation in response to IGF-1, control cells (no antibody) [2]: 4.1 fold | fold increase in cell proliferation with IGF-1, no antibody [2]: 2.2 fold
B1: integrin associated protein (IAP), endogenous in porcine aortic smooth muscle cells (receptor, UniProt Q9GKE8 19-303, looked up)
chain: T2 sequence (looked up)

% reduction of the interaction between IAP and SHPS-1 [3]: 75%
B2: anti IAP monoclonal antibody B6H12 (antibody, from another filing)
scFv: EVQLVESGGDLVKPGGSLKLSCAASGFTFSGYGMSWVRQTPDKRLEWVATITSGGTYTYYPDSVKGRFTISRDNAKNTLYLQIDSLKSEDTAIYFCARSLAGNAMDYWGQGTSVTVSSGGGGSGGGGSGGGGSDIVMTQSPATLSVTPGDRVSLSCRASQTISDYLHWYQQKSHESPRLLIKFASQSISGIPSRFSGSGSGSDFTLSINSVEPEDVGVYYCQNGHGFPRTFGGGTKLEIKEQKLISEEDL
